The values below come from publication PMC4493011, “The Cold Shock Domain of YB-1 Segregates RNA from DNA by Non-Bonded Interactions”.

Conditions in all cases: protein: recombinant; single strand
Data set [1] addresses T1, YB-1 (full-length) (human, UniProt P67809 1-324). The data set can be described thus: EMSA; apparent Kd, protein concentration at 50% saturation; 7 pmol RNA in 10 ul; 10 mM Hepes-KOH pH 7.6, 100 mM KCl, 30 C, 15 min, 10 ul; 8% native PAGE in TBE, silver staining.
Data set [2] concerns the target T2, YB-1 cold shock domain (CSD) (human, UniProt P67809 51-129). The data set is described as above.
The target in data set [3] is T1, YB-1 (full-length). The data set can be described thus: EMSA; apparent Kd, protein concentration at 50% saturation; 7 pmol DNA in 10 ul; 10 mM Hepes-KOH pH 7.6, 100 mM KCl, 30 C, 15 min, 10 ul; 8% native PAGE in TBE, silver staining.
Data set [4] addresses T2, YB-1 cold shock domain (CSD). The description is as above.

T2 sequence (P67809 51-129): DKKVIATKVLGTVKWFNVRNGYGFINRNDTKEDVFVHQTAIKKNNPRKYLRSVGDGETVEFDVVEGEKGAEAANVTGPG
T1 sequence (P67809 whole entry, the tested form may be a part): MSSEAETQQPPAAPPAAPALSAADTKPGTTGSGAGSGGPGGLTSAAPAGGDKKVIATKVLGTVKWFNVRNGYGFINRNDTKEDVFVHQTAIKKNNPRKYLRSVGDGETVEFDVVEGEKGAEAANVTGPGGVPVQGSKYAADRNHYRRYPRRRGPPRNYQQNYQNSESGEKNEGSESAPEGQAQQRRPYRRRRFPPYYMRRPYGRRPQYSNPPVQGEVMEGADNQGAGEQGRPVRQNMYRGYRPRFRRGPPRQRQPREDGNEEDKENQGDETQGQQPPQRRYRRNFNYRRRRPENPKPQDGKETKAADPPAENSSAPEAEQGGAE

AGGAUGGGUGAGUGAGGUAG (ssRNA) [G-rich RNA 20-mer]: the results for the Kd (with YB-1 (full-length) [1]; in data set [2]) were 300 nM and 2500 nM, respectively.
On to AGGATGGGTGAGTGAGGTAG (ssDNA) [G-rich DNA 20-mer], for which the results for the Kd (with YB-1 (full-length) [3]; in data set [4]) were 600 nM and 6 µM, respectively.
